Experimental data as given in PMC8005859 (2021).
Where “and” joins values, the source holds several entries; their conditions need not be identical. Equal values may be shown once.

Target: SARS-CoV-2 S trimer (SARS-CoV-2, UniProt P0DTC2)
Assay: SPR

B1: P17 (antibody, V domains shown)
VH: QQLVESGGGVVQPGRSLRLSCAASGFTFSSYAMHWVRQAPGKGLEWVAVISYDGSNKYYADSVKGRFTISRDNSKNTLYLQMNSLRAEDTAVYYCARHATLMNNKDIWGQGTLVTVSS
VL: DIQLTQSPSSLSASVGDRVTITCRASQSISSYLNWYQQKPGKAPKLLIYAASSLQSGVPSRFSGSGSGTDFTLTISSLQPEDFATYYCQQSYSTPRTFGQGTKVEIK
With B1 the Kd was 0.14 nM and 0.08 nM and 0.06 nM.
